Positions count from the first letter of the chain named.
Test system: K562 CRISPRi cells
Assay: Constant region variant library pooled growth screen, K562
Assay type: cell-based, human
Settings: sgRNA constant region variants; activity relative to the original, un-modified constant region cr995
Outline: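 Pooled library transduced into K562 CRISPRi cells in duplicate, puromycin-selected, grown at >2000× coverage and sampled after 4 to 8 days. Phenotypes per targeting sequence:constant region pair were normalized to the unmodified-scaffold pairing to give relative activity.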

B1: cr962 (nucleic acid)
guide: GTTTAAGAGCTAAGCTGGAAACAGCATAGCAAGTTTAAATAAGGCTAGTCCGTTATCAACTTGAAAAAGTGGGACCCAGTGGGTCCT
modifications: listed as DNA, chemistry not fully specified
- Mean relative activity: 0.6733

B2: cr008 (nucleic acid)
guide: B1 guide with T3C, G73C, C77G, G81C, C85G
modifications: listed as DNA, chemistry not fully specified
- Mean relative activity: 0.5955

B3: cr602 (nucleic acid)
guide: B1 guide with G73C, A74G, C77G, G81C, T84C, C85G
modifications: listed as DNA, chemistry not fully specified
- Mean relative activity: 1.049

B4: cr451 (nucleic acid)
guide: B1 guide with C45A, G48T, G73C, A74T, C77G, G81C, T84A, C85G
modifications: listed as DNA, chemistry not fully specified
- Mean relative activity: 0.6053

B5: cr861 (nucleic acid)
guide: B1 guide with T56G, G71A, G73C, C77G, G81C, C85G
modifications: listed as DNA, chemistry not fully specified
- Mean relative activity: 0.6319

B6: cr086 (nucleic acid)
guide: B1 guide with A6C, G7T, G73C, C77G, G81C, C85G
modifications: listed as DNA, chemistry not fully specified
- Mean relative activity: 0.614

B7: cr406 (nucleic acid)
guide: B1 guide with C57T, G73C, C77G, G81C, C85G
modifications: listed as DNA, chemistry not fully specified
- Mean relative activity: 0.6285

B8: cr293 (nucleic acid)
guide: B1 guide with C77A, G81T
modifications: listed as DNA, chemistry not fully specified
- Mean relative activity: 1.052

B9: cr650 (nucleic acid)
guide: B1 guide with C57G, G73C, C77G, G81C, C85G
modifications: listed as DNA, chemistry not fully specified
- Mean relative activity: 0.6158

B10: cr631 (nucleic acid)
guide: B1 guide with C45A, G48T, T61A, A68T, G73C, C75A, C77G, G81C, G83T, C85G
modifications: listed as DNA, chemistry not fully specified
- Mean relative activity: 0.6014

B11: cr937 (nucleic acid)
guide: B1 guide with C45G, G48C, T62C, A67G, G73C, C76A, C77G, G81C, G82T, C85G
modifications: listed as DNA, chemistry not fully specified
- Mean relative activity: 0.6137

B12: cr189 (nucleic acid)
guide: B1 guide with G73C, C77A, G81C, C85G
modifications: listed as DNA, chemistry not fully specified
- Mean relative activity: 0.627

B13: cr639 (nucleic acid)
guide: B1 guide with C45A, G48T, G73C, C77G, G81C, C85G
modifications: listed as DNA, chemistry not fully specified
- Mean relative activity: 0.6057

B14: cr766 (nucleic acid)
guide: B1 guide with T61A, A68T, G73C, C77G, G81C, C85G
modifications: listed as DNA, chemistry not fully specified
- Mean relative activity: 1.051

B15: cr848 (nucleic acid)
guide: B1 guide with A65G, G73C, C77G, A78G, G81C, C85G
modifications: listed as DNA, chemistry not fully specified
- Mean relative activity: 0.6714

B16: cr679 (nucleic acid)
guide: B1 guide with G29T, T53G, G73C, C77G, G81C, C85G
modifications: listed as DNA, chemistry not fully specified
- Mean relative activity: 0.6292

B17: cr441 (nucleic acid)
guide: B1 guide with C57A, G73C, C77G, G81C, C85G
modifications: listed as DNA, chemistry not fully specified
- Mean relative activity: 0.622

B18: cr549 (nucleic acid)
guide: B1 guide with T61C, A68G, G73C, C77G, G81C, C85G
modifications: listed as DNA, chemistry not fully specified
- Mean relative activity: 1.051

B19: cr273 (nucleic acid)
guide: B1 guide with G44T, C50A, A65G, G73C, C77G, G81C, C85G
modifications: listed as DNA, chemistry not fully specified
- Mean relative activity: 0.6725

B20: cr913 (nucleic acid)
guide: B1 guide with T40C, G73C, C77G, G81C, C85G
modifications: listed as DNA, chemistry not fully specified
- Mean relative activity: 0.633

B21: cr227 (nucleic acid)
guide: B1 guide with T53C, T56A, A58C, G73C, C77G, G81C, C85G
modifications: listed as DNA, chemistry not fully specified
- Mean relative activity: 0.6062

B22: cr746 (nucleic acid)
guide: B1 guide with G33A, A65C, G73C, C77G, G81C, C85G
modifications: listed as DNA, chemistry not fully specified
- Mean relative activity: 0.629

B23: cr017 (nucleic acid)
guide: B1 guide with A6G, G73C, C77G, G81C, C85G
modifications: listed as DNA, chemistry not fully specified
- Mean relative activity: 0.639

B24: cr213 (nucleic acid)
guide: B1 guide with G29A, A42G, A65G, G73C, C77G, G81C, C85G
modifications: listed as DNA, chemistry not fully specified
- Mean relative activity: 0.6325

B25: cr479 (nucleic acid)
guide: B1 guide with C60G, G69C
modifications: listed as DNA, chemistry not fully specified
- Mean relative activity: 0.5994

B26: cr667 (nucleic acid)
guide: B1 guide with T34C, T62C, A67G, G73C, C77G, G81C, C85G
modifications: listed as DNA, chemistry not fully specified
- Mean relative activity: 0.6533

B27: cr458 (nucleic acid)
guide: B1 guide with A65G, G71C, G73C, C77G, G81C, C85G
modifications: listed as DNA, chemistry not fully specified
- Mean relative activity: 0.5958

B28: cr815 (nucleic acid)
guide: B1 guide with G73C, C77G, G81C, G83A, C85G
modifications: listed as DNA, chemistry not fully specified
- Mean relative activity: 0.6583

B29: cr793 (nucleic acid)
guide: B1 guide with G73C, C77G, G81C, G83T, C85G
modifications: listed as DNA, chemistry not fully specified
- Mean relative activity: 0.6343

B30: cr840 (nucleic acid)
guide: B1 guide with A65G, G71A, G73C, C77G, G81C, C85G
modifications: listed as DNA, chemistry not fully specified
- Mean relative activity: 0.6688

B31: cr699 (nucleic acid)
guide: B1 guide with C45G, G48C, T61G, T62C, A67G, A68C, G73C, C77G, G81C, C85G
modifications: listed as DNA, chemistry not fully specified
- Mean relative activity: 0.6628

B32: cr133 (nucleic acid)
guide: B1 guide with T46A, T49C, G73C, C77G, G81C, C85G
modifications: listed as DNA, chemistry not fully specified
- Mean relative activity: 0.6664

B33: cr442 (nucleic acid)
guide: B1 guide with T34C, T61C, A68G, G73C, C77G, G81C, C85G
modifications: listed as DNA, chemistry not fully specified
- Mean relative activity: 0.6169

B34: cr001 (nucleic acid)
guide: B1 guide with G1A, G73C, C77G, G81C, C85G
modifications: listed as DNA, chemistry not fully specified
- Mean relative activity: 0.6312

B35: cr917 (nucleic acid)
guide: B1 guide with C45T, G48A, G73C, C75T, C77T, G81A, G83A, C85G
modifications: listed as DNA, chemistry not fully specified
- Mean relative activity: 0.6521

B36: cr481 (nucleic acid)
guide: B1 guide with C45G, G48C, G72A, G73C, C77G, G81C, C85G, C86T
modifications: listed as DNA, chemistry not fully specified
- Mean relative activity: 0.5936

B37: cr026 (nucleic acid)
guide: B1 guide with A5G, G7T, G73C, C77G, G81C, C85G
modifications: listed as DNA, chemistry not fully specified
- Mean relative activity: 0.6314

B38: cr915 (nucleic acid)
guide: B1 guide with G73C, C85G
modifications: listed as DNA, chemistry not fully specified
- Mean relative activity: 0.5965

B39: cr844 (nucleic acid)
guide: B1 guide with A59G, T70C, G73C, C75T, C76T, C77G, G81C, G82A, G83A, C85G
modifications: listed as DNA, chemistry not fully specified
- Mean relative activity: 0.6346

B40: cr885 (nucleic acid)
guide: B1 guide with A31C, G71T, G73C, C77G, G81C, C85G
modifications: listed as DNA, chemistry not fully specified
- Mean relative activity: 0.6498

B41: cr212 (nucleic acid)
guide: B1 guide with G33A, A66G, G73C, C77G, G81C, C85G
modifications: listed as DNA, chemistry not fully specified
- Mean relative activity: 0.6035
